The source of these data is patent publication US20090280138A1 (OXFORD BIOMEDICA UK, published 2009).

For the first assay, the target named is T1, MHC class I allele A*0101 monomer (human, biotinylated, bound to streptavidin-coated plate).
T1 construct: placeholder peptide and b2M removed, then reconstituted with test peptide and fresh b2M; also called A1; HLA-A1
Kind of assay: iTopia, multiparametric iScore. The protocol: (§1) The 9 mers were tested for Peptide Binding, Off Rate and Affinity using iTopia Epitope Discovery System in accordance with the manufacturer's instructions. Briefly, 96 well microtitre plates coated with MHC molecules representing different MHC alleles are used to identify candidate peptides. […] Determinations are performed in duplicate using an ELISA plate reader and included allele specific positive controls.
(§2) Finally, multiparametric analysis is performed on the results from these assays and an iScore is generated. The iScore represents a measure of the overall quality of peptide-MHC binding, enabling candidate peptides to be ranked in order of binding quality and allowing rational prioritisation of peptides for functional cellular follow-up studies.
With YLNRKGIKK [5T4 9-mer peptide 188], the iScore came to 0.

In the case of MHNIRDACR [5T4 9-mer peptide 193], the iScore is 0.

GAIFLLVLY [5T4 9-mer peptide 184] yielded an iScore of 0.

ACRDHMEGY [5T4 9-mer peptide 196] showed an iScore of 0.

In the case of NRKGIKKWM [5T4 9-mer peptide 189], the iScore was found to be 0.

The molecule YHYRYEINA [5T4 9-mer peptide 200] came in with an iScore of 0.

In turn, ADPRLTNLS [5T4 9-mer peptide 204] yielded an iScore of 0.

For the molecule YRYEINADP [5T4 9-mer peptide 201], the iScore amounted to 0.

In the case of LTNLSSNSD [5T4 9-mer peptide 206], the iScore stood at 0.

On to PRLTNLSSN [5T4 9-mer peptide 205], for which the iScore was 0.

KGIKKWMHN [5T4 9-mer peptide 190] had an iScore of 0.

For the molecule NIRDACRDH [5T4 9-mer peptide 194], the iScore came to 0.

As for IFLLVLYLN [5T4 9-mer peptide 185], the iScore worked out at 0.

Consider YEINADPRL [5T4 9-mer peptide 202], for which the iScore stood at 0.

With IKKWMHNIR [5T4 9-mer peptide 191], the iScore is 0.

Molecule INADPRLTN [5T4 9-mer peptide 203] gave an iScore of 0.

In turn, KWMHNIRDA [5T4 9-mer peptide 192] registered an iScore of 0.

EGYHYRYEI [5T4 9-mer peptide 199] gave an iScore of 0.

On to RDHMEGYHY [5T4 9-mer peptide 197], for which the iScore came out at 0.

In the case of RDACRDHME [5T4 9-mer peptide 195], the iScore came out at 0.

The next assay concerns the target T2, MHC class I allele A*0301 monomer (human, biotinylated, bound to streptavidin-coated plate).
T2 construct: also called A3; HLA-A3
Kind of assay: iTopia, multiparametric iScore. The protocol:
as §1, §2
In the case of YLNRKGIKK [5T4 9-mer peptide 188], the iScore was determined as 0.065.

With MHNIRDACR [5T4 9-mer peptide 193], the iScore came to 0.

GAIFLLVLY [5T4 9-mer peptide 184] showed an iScore of 0.

The molecule ACRDHMEGY [5T4 9-mer peptide 196] displayed an iScore of 0.

Take NRKGIKKWM [5T4 9-mer peptide 189]: the iScore stood at 0.

The molecule YHYRYEINA [5T4 9-mer peptide 200] came in with an iScore of 0.

In turn, ADPRLTNLS [5T4 9-mer peptide 204] came in with an iScore of 0.

In the case of YRYEINADP [5T4 9-mer peptide 201], the iScore came out at 0.

In turn, LTNLSSNSD [5T4 9-mer peptide 206] had an iScore of 0.

PRLTNLSSN [5T4 9-mer peptide 205] gave an iScore of 0.

As for KGIKKWMHN [5T4 9-mer peptide 190], the iScore came to 0.

Molecule NIRDACRDH [5T4 9-mer peptide 194] gave an iScore of 0.

IFLLVLYLN [5T4 9-mer peptide 185]: the iScore came to 0.

For YEINADPRL [5T4 9-mer peptide 202], the iScore was determined as 0.

For IKKWMHNIR [5T4 9-mer peptide 191], the iScore came out at 0.

INADPRLTN [5T4 9-mer peptide 203] yielded an iScore of 0.

KWMHNIRDA [5T4 9-mer peptide 192] yielded an iScore of 0.

As to EGYHYRYEI [5T4 9-mer peptide 199], the iScore came to 0.

In the case of RDHMEGYHY [5T4 9-mer peptide 197], the iScore came to 0.

For the molecule RDACRDHME [5T4 9-mer peptide 195], the iScore was found to be 0.

For the next assay, the target named is T3, MHC class I allele A*0201 monomer (human, biotinylated, bound to streptavidin-coated plate).
T3 construct: also called A2; HLA-A2
Kind of assay: iTopia, multiparametric iScore. The protocol: as §1, §2
In turn, YLNRKGIKK [5T4 9-mer peptide 188] returned an iScore of 0.118.

In turn, MHNIRDACR [5T4 9-mer peptide 193] gave an iScore of 0.093.

In turn, GAIFLLVLY [5T4 9-mer peptide 184] showed an iScore of 0.

Take ACRDHMEGY [5T4 9-mer peptide 196]: the iScore is 0.

In turn, NRKGIKKWM [5T4 9-mer peptide 189] came in with an iScore of 0.138.

In turn, YHYRYEINA [5T4 9-mer peptide 200] gave an iScore of 0.

ADPRLTNLS [5T4 9-mer peptide 204] registered an iScore of 0.

YRYEINADP [5T4 9-mer peptide 201] returned an iScore of 0.

Regarding LTNLSSNSD [5T4 9-mer peptide 206], the iScore stood at 0.027.

As to PRLTNLSSN [5T4 9-mer peptide 205], the iScore is 0.

Molecule KGIKKWMHN [5T4 9-mer peptide 190] yielded an iScore of 0.

Molecule NIRDACRDH [5T4 9-mer peptide 194] gave an iScore of 0.

Consider IFLLVLYLN [5T4 9-mer peptide 185], for which the iScore was found to be 0.

YEINADPRL [5T4 9-mer peptide 202] showed an iScore of 0.077.

IKKWMHNIR [5T4 9-mer peptide 191] yielded an iScore of 0.181.

Regarding INADPRLTN [5T4 9-mer peptide 203], the iScore stood at 0.

KWMHNIRDA [5T4 9-mer peptide 192]: the iScore was 0.45.

Turning to EGYHYRYEI [5T4 9-mer peptide 199], the iScore amounted to 0.

As for RDHMEGYHY [5T4 9-mer peptide 197], the iScore was found to be 0.

RDACRDHME [5T4 9-mer peptide 195] gave an iScore of 0.08.

Another assay addresses T4, MHC class I allele B*0702 monomer (human, biotinylated, bound to streptavidin-coated plate).
T4 construct: also called B7; HLA-B7
The assay can be described thus: iTopia, multiparametric iScore. The protocol: as §1, §2
As to YLNRKGIKK [5T4 9-mer peptide 188], the iScore amounted to 0.089.

The molecule MHNIRDACR [5T4 9-mer peptide 193] came in with an iScore of 0.

As for GAIFLLVLY [5T4 9-mer peptide 184], the iScore was found to be 0.

On to ACRDHMEGY [5T4 9-mer peptide 196], for which the iScore is 0.

The molecule NRKGIKKWM [5T4 9-mer peptide 189] gave an iScore of 0.

YHYRYEINA [5T4 9-mer peptide 200] registered an iScore of 0.

ADPRLTNLS [5T4 9-mer peptide 204] returned an iScore of 0.094.

For the molecule YRYEINADP [5T4 9-mer peptide 201], the iScore stood at 0.

As for LTNLSSNSD [5T4 9-mer peptide 206], the iScore stood at 0.

The molecule PRLTNLSSN [5T4 9-mer peptide 205] returned an iScore of 0.

On to KGIKKWMHN [5T4 9-mer peptide 190], for which the iScore amounted to 0.

In turn, NIRDACRDH [5T4 9-mer peptide 194] registered an iScore of 0.

In turn, IFLLVLYLN [5T4 9-mer peptide 185] returned an iScore of 0.

In turn, YEINADPRL [5T4 9-mer peptide 202] yielded an iScore of 0.

In turn, IKKWMHNIR [5T4 9-mer peptide 191] registered an iScore of 0.

INADPRLTN [5T4 9-mer peptide 203]: the iScore came out at 0.

The molecule KWMHNIRDA [5T4 9-mer peptide 192] had an iScore of 0.

In the case of EGYHYRYEI [5T4 9-mer peptide 199], the iScore is 0.

For RDHMEGYHY [5T4 9-mer peptide 197], the iScore came to 0.

For RDACRDHME [5T4 9-mer peptide 195], the iScore was found to be 0.

The target of a further assay is T5, MHC class I allele A*0301 (bound via biotin to streptavidin-coated plate).
T5 construct: iTopia MHC class I monomer on the plate; placeholder peptide and b2M removed, then reconstituted with test peptide and fresh b2M; also called A3; HLA A3
Kind of assay: iTopia peptide binding assay. As to the method: as §1
(§3) i) Peptide Binding—This assay measures the ability of individual peptides to bind to the MHC molecules under standardized optimal binding conditions. The assay is performed for all the test peptides across the selected MHC alleles. The test peptides identified as “binders” are characterized further in terms of affinity and dissociation experiments.
Turning to PDQCPALCE (also called Peptide No 30) [5T4 9 mer peptide 30 PDQCPALCE], the “% of positive control peptide binding” value is 0%.

Consider SAQPPLPDQ (also called Peptide No 27) [5T4 9 mer peptide 27 SAQPPLPDQ], for which the “% of positive control peptide binding” value was found to be 0%.

As to APFLASAVS (also called Peptide No 23) [5T4 9 mer peptide 23 APFLASAVS], the “% of positive control peptide binding” value was 0%.

MPGGCSRGP (also called Peptide No 1) [5T4 9 mer peptide 1 MPGGCSRGP]: the “% of positive control peptide binding” value was 0%.

For ASAVSAQPP (also called Peptide No 25) [5T4 9 mer peptide 25 ASAVSAQPP], the “% of positive control peptide binding” value was 0%.

QPPLPDQCP (also called Peptide No 28) [5T4 9 mer peptide 28 QPPLPDQCP]: the “% of positive control peptide binding” value came to 1%.

For RLRLARLAL (also called Peptide No 8) [5T4 9 mer peptide 8 RLRLARLAL], the “% of positive control peptide binding” value is 43%.

In a further assay the target is T6, MHC class I allele B*0702 (bound via biotin to streptavidin-coated plate).
T6 construct: iTopia MHC class I monomer on the plate; placeholder peptide and b2M removed, then reconstituted with test peptide and fresh b2M; also called B7; HLA B7
Kind of assay: iTopia peptide binding assay. The protocol: as §1, §3
For the molecule PDQCPALCE (also called Peptide No 30) [5T4 9 mer peptide 30 PDQCPALCE], the “% of positive control peptide binding” value was 1%.

Turning to SAQPPLPDQ (also called Peptide No 27) [5T4 9 mer peptide 27 SAQPPLPDQ], the “% of positive control peptide binding” value turned out to be 3%.

For the molecule APFLASAVS (also called Peptide No 23) [5T4 9 mer peptide 23 APFLASAVS], the “% of positive control peptide binding” value was determined as 37%.

MPGGCSRGP (also called Peptide No 1) [5T4 9 mer peptide 1 MPGGCSRGP]: the “% of positive control peptide binding” value turned out to be 3%.

On to ASAVSAQPP (also called Peptide No 25) [5T4 9 mer peptide 25 ASAVSAQPP], for which the “% of positive control peptide binding” value was 0%.

Regarding QPPLPDQCP (also called Peptide No 28) [5T4 9 mer peptide 28 QPPLPDQCP], the “% of positive control peptide binding” value turned out to be 3%.

Turning to RLRLARLAL (also called Peptide No 8) [5T4 9 mer peptide 8 RLRLARLAL], the “% of positive control peptide binding” value was found to be 46%.

Another assay concerns the target T7, MHC class I allele A*0201 (bound via biotin to streptavidin-coated plate).
T7 construct: iTopia MHC class I monomer on the plate; placeholder peptide and b2M removed, then reconstituted with test peptide and fresh b2M; also called A2; HLA A2
Kind of assay: iTopia peptide binding assay. The protocol:
as §1, §3
As to PDQCPALCE (also called Peptide No 30) [5T4 9 mer peptide 30 PDQCPALCE], the “% of positive control peptide binding” value is 3%.

For the molecule SAQPPLPDQ (also called Peptide No 27) [5T4 9 mer peptide 27 SAQPPLPDQ], the “% of positive control peptide binding” value worked out at 13%.

For the molecule APFLASAVS (also called Peptide No 23) [5T4 9 mer peptide 23 APFLASAVS], the “% of positive control peptide binding” value worked out at 15%.

Take MPGGCSRGP (also called Peptide No 1) [5T4 9 mer peptide 1 MPGGCSRGP]: the “% of positive control peptide binding” value came out at 9%.

ASAVSAQPP (also called Peptide No 25) [5T4 9 mer peptide 25 ASAVSAQPP]: the “% of positive control peptide binding” value amounted to 5%.

For the molecule QPPLPDQCP (also called Peptide No 28) [5T4 9 mer peptide 28 QPPLPDQCP], the “% of positive control peptide binding” value worked out at 5%.

The next assay concerns the target T8, MHC class I allele A*0101 (bound via biotin to streptavidin-coated plate).
T8 construct: iTopia MHC class I monomer on the plate; placeholder peptide and b2M removed, then reconstituted with test peptide and fresh b2M; also called A1; HLA A1
The assay can be described thus: iTopia peptide binding assay. The protocol: as §1, §3
As to PDQCPALCE (also called Peptide No 30) [5T4 9 mer peptide 30 PDQCPALCE], the “% of positive control peptide binding” value was found to be 5%.

In the case of SAQPPLPDQ (also called Peptide No 27) [5T4 9 mer peptide 27 SAQPPLPDQ], the “% of positive control peptide binding” value was found to be 2%.

With APFLASAVS (also called Peptide No 23) [5T4 9 mer peptide 23 APFLASAVS], the “% of positive control peptide binding” value stood at 1%.

With MPGGCSRGP (also called Peptide No 1) [5T4 9 mer peptide 1 MPGGCSRGP], the “% of positive control peptide binding” value is 0%.

For ASAVSAQPP (also called Peptide No 25) [5T4 9 mer peptide 25 ASAVSAQPP], the “% of positive control peptide binding” value is 2%.

On to QPPLPDQCP (also called Peptide No 28) [5T4 9 mer peptide 28 QPPLPDQCP], for which the “% of positive control peptide binding” value was 6%.

Take RLRLARLAL (also called Peptide No 8) [5T4 9 mer peptide 8 RLRLARLAL]: the “% of positive control peptide binding” value amounted to 3%.
